Five molecules from patent US20200200749A1 (VANDERBILT UNIVERSITY, published 2020) can be followed below.

Assay [1] addresses T1, EBOV GP (recombinant, full-length extracellular domain) (EBOV (Ebola Zaire), UniProt Q05320 33-650).
T1 sequence: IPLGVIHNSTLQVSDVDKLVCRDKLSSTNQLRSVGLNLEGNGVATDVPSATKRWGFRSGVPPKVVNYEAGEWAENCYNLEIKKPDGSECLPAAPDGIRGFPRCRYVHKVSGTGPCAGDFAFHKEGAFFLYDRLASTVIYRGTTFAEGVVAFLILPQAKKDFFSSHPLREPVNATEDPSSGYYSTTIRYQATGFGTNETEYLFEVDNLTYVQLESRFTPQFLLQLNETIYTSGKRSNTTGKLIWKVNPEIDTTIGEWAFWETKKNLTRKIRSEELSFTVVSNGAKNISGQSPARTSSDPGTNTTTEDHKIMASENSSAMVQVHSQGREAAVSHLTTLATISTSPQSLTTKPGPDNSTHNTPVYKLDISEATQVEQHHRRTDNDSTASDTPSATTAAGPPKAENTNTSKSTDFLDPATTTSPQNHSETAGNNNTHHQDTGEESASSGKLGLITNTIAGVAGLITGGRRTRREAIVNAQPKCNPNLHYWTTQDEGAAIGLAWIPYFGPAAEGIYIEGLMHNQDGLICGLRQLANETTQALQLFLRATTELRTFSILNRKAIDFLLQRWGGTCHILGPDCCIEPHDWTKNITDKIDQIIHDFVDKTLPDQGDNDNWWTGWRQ
Briefly: ELISA, GP coated on plate, mAb serially diluted.

The target of the next assay is T2, EBOV sGP (EBOV (Ebola Zaire), UniProt P60170 33-324).
T2 sequence: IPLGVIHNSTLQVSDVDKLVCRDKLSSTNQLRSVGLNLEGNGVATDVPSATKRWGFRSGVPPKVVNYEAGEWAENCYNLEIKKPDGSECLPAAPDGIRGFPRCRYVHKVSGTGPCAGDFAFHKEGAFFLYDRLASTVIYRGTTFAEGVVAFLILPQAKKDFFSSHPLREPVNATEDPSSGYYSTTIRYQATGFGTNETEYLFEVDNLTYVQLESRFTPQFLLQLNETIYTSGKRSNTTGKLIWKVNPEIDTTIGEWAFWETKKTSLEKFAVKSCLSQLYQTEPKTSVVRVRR
As to the kind of experiment: ELISA, sGP coated on plate, mAb serially diluted.

The target in a further assay is T3, SUDV GP (recombinant) (SUDV (Sudan ebolavirus), UniProt Q66814 33-650).
T3 sequence: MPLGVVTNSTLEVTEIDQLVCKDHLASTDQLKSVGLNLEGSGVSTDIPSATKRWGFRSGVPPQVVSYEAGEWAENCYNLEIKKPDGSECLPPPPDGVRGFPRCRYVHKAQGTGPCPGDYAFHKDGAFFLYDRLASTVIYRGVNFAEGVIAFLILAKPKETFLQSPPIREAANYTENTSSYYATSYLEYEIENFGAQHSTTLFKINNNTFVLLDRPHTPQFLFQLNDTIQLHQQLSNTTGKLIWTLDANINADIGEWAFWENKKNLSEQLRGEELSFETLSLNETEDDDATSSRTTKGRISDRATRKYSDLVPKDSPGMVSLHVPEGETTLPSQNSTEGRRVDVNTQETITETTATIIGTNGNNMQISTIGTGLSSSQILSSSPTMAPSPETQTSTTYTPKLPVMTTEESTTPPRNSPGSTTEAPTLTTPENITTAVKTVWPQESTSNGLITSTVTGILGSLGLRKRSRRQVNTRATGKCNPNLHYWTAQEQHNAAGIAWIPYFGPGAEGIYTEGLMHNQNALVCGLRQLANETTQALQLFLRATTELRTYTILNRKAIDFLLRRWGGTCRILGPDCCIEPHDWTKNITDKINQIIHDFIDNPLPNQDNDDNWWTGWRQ
Briefly: ELISA, GP coated on plate, mAb serially diluted.

B1: EBOV62 (antibody, V domains shown)
VH: EVQLVESGGGLVQPGGSLRLSCAASGFTFSSYWMSWVRQAPGKGLEWVANIKQDGSAKYYVDSVKGRFTISRDNAKNSLYLQMNSLRAEDTAVYYCARDGLLGISDLLYPIYYFDYWGQGTLVTVSS
VL: DIVMTQSPSSLSASVGDRVTITCRASQNIGSYLNWYQQKPGKAPNLLMYAASSLQSGVPSRFSGSGSGTDFTLTITSLQPEDFATYYCQQSYSIPRTFGQGTQLEIK
Turning to B1, the EC50 in assay [1] was determined as 228 µg/mL; in the assay with EBOV sGP, 51 µg/mL.

B2: EBOV49 (antibody, V domains shown)
VH: EVQLVESGGGLVQPGGSLRLSCAASGFTFSSYEINWVRQAPGRGLEWVSYISSSGRTIYYADSVKGRFTISRDNAKNSLYLQMNSLRAEDTAVYYCAREPYVDGILYGAGDSYFDYWGQGTLVTVSS
VL: DIQMTQSPSSLSASVGDRVTITCRASQSISNYLNWYQQKPGKAPKVLIYAASSLQSGVSSRFSGSGSGTDFTLTISSLQPEDFATYFCQQSYNTPPVTFGQGTRLEIK
In the case of B2, the half-maximal effective concentration (EC50) came to 262 µg/mL in assay [1] and 61 µg/mL with EBOV sGP.

B3: EBOV87 (antibody, V domains shown)
VH: QVQLVQSGAEVKRPGASVKVSCKASGYTFTSYAISWVRQAPGQGLEWMGWISGNNGNTNYAQKLQGRLTMTTDTSTSTAYMELRSLRSDDTAVYYCARDADIVVVVGATGTYYYGMDVWGQGTLVTVSS
VL: DIVMTQSPSTLSASVGDRVTITCRASQSISSWLAWYQQKPGKAPKLLIYDASSLESGVPSRFSGSGSGTEFTLTISSLQPDDFATYYCQQYKSSLRTFGQGTQLEIK
As to B3, the EC50 came out at 724 µg/mL in assay [1], 629 µg/mL with SUDV GP (recombinant) and 51 µg/mL in the assay with EBOV sGP.

B4: EBOV52 (antibody, V domains shown)
VH: QVQLQESGPGLVKPSETLSLNCTVSGGSISSYYWSWIRQPPGKGLEWIGYIYDSGRTKYNPSLKSRVTISLDTSKNQFSLKLSSVTAADTAVYYCASLGPFDKLWFGELLPGWFDPWGQGTLVTVSS
VL: EIVLTQSPATLSLSPGGRATLSCRASQSVHNYLAWYQQKSGQAPRLLIYDASNRATGIPARFSGSGSGTDFTLTISSLEPDDFAVYYCQHRSNWLTFGGGTKVEIK
As to B4, the concentration giving a half-maximal response (EC50) in assay [1] turned out to be 712 µg/mL; with EBOV sGP, 82 µg/mL.

B5: EBOV63 (antibody, V domains shown)
VH: EVQLVESGGGLVKPGGSLRLSCAASGFTLNFYNMNWVRQAPGKGLEWVSSISSSSNYIYYADSVKGRFTISRDNARKSLYLQMNSLRAEDTAVYYCARDFVQLLIPQRDEWQGVHDYYGMDVWGQGTLVTVSS
VL: EIVLTQSPGTLSLSPGGRATLSCRASQSVSNSYLAWYQQKPGQAPRLLIYGASSRATGIPDRFSGSGSGTDFILTISRLEPEDFAVYYCQHYGSSQLTFGGGTKVEIK
On to B5, for which the figures for the EC50 (in assay [1]; with EBOV sGP) were 283 µg/mL and 38 µg/mL, respectively.
